Experimental data from US20150376269A1 (Regeneron, published 2015).

B1: H1H10069P (antibody, V domains shown)
VH: QVQLQESGPGLVKPSETLSLTCSVSGGSFTNYYWSWIRQPPGKGLEWIGSVFYSGTTNYNPSLQSRVTLSIETSKNQFSLRLNSVTAADTAVYYCARDQGAAALDYWGQGTLVTVSS
VL: DIQMTQSPSTLSASVGDRLTITCRASQSINNWLAWYQQKPGKAPKLLIYKASNLESGVPSRFSGSGSGTEFTLTISNLQPDDFATYYCQQYNSFFLTFGGGTKVEIK
notes: Fully human antibody with human IgG1 Fc (prefix H1H)
B2: H1H10059P (antibody, V domains shown)
VH: QVQLVQSGAEVKKPGASVKVSCKAAGFTFIGYYIHWVRQAPGQGLEWMGWINSNSGDKDSAPKFQDRVTMTRDTSISTAYMELSRLRSDDTAVYFCAREGYNFGHFDYWGQGTLVTVSS
VL: DIVMTQTPLSSPVTLGQPASISCRSSQSLVHSDGNTYLSWLQQRPGQPPRLLIYKISNRLSGVPDRFSGSGAGTDFTLKISRVEGEDVGVYYCMQGTQFPRTFGQGTKVEIK
notes: as for B1
B3: H1H10061P (antibody, V domains shown)
VH: QVQLVESGGGVVQPGNSLRLSCAASGFTFSAYGMHWVRQAPGKGLEWVAVISYDGSNEFYADSVKGRFTIFRDNSKNMLYLQMNSLRVEDTSIYYCAKDRGLGVYYFFYGMDVWGQGTTVTVSS
VL: DIVMTQSPDSLVVSLGERATINCKSSQSLLYSSSNNNYLTWYQQKPGRPPKLLIYWASTRESGVPDRFSGSGSGTDFTLTISSLQAEDVAIYYCQQNYITPLTFGGGTKVEIK
notes: as for B1
B4: H1H10027P (antibody, V domains shown)
VH: EVQLVESGGALVQPGRSLTLSCAASGFTFDDYTMHWVRQTPGKGLEWVSGILWNSDNLVYADSVKGRFTISRDNAKNSLYLQMNSLRVEDTALYYCTKEIDYLTLGGNAFDVWGQGTMVTVSS
VL: DIQMTQSPSTLSASVGDRITITCRASQNINYWLAWYQQKPGKAPKLLIYKASSLAGGVPSRFSGSGSGTDFTLTINSLQPDDFATYYCQKYNTYSLNFGGGTKVEIK
notes: as for B1
B5: H2aM10204N (antibody, V domains shown)
VH: QVHLVQSGAEVKKPGSSVKVSCKASGGTFSNYAISWVRQAPGQGLEWMGGIIPFSGSATYAQNFQGRITITTDESTRTAYMELNGLRSEDTAVYYCARWFSGYGGDFDYWGQGTLVTVSS
VL: AIQMTQSPSSLSASVGDRVTITCRASQDIKNDLGWYQQKPGKAPKLLIYAASTLQSGVPSRFSGSGSGTHFTLTLSSLQPEDFATYFCLQDYTFPRTFGQGTKVEIK
notes: Chimeric antibody, human variable domains and mouse constant domains (mouse Fc, prefix H2aM); also called H2M10204N
B6: H2aM10285N (antibody, V domains shown)
VH: QVQLVQSGAEVKKPGSSVKVSCKASGGTFTNFAISWVRQAPGLGLEWMGGIIPFVGTATYEQKFQGRVSITADESTRTAYMELSSLRYDDTAVYYCARWFSGSGGDFDYWGQGTLVTVSS
VL: AIQMTQSPSSLSASVGDRVTITCRASQGIGNDLGWYQQRRGTAPKLLIYAASSLQSGVPSRFSGSGSGTDFTLTISSLQPEDFATYYCLQDFTFPRTFGQGTKVEIK
notes: Chimeric antibody, human variable domains and mouse constant domains (mouse Fc, prefix H2aM); also called H2M10285N
B7: H1H10067P (antibody, V domains shown)
VH: QVQLQESGPGLVKPSQTLSLTCIVSGGSISSGDYYWNWIRQHPGKGLEWIGDIYHSGDTYYNPSLKSRVTISLDTSKNQFSLKLSSLTAADTAVYYCARDRIVATGGGMDVWGQGTTVTVSS
VL: DIQMTQSPSTLSASVGDRVTITCRASQSISSWLAWYQRKPGKAPNLLIYRSSSLESGVPSRFSGSGSGTEFTLTISSLQADDFVIYYCQQYNSYPYTFGQGTKLEIK
notes: as for B1
B8: H1H10058P (antibody, V domains shown)
VH: EVQLVESGGGLVQPGGSLRLSCAASGFTFNDFFMSWVRQAPGKGLEWVANLNQDGSERHYVDSVKGRFTISRDNAKNSLSLQMNSLRVEDTAVYYCAREGGDSWGQGTLVTVSS
VL: DIVMTQSPDSLAVSLGERVTINCKSSQSILYSANNKDYLAWFHQKPGQPPKLLIYWASIRESGVPDRISGSGSGTDFTLTISSLQAEDVAVYYCQQYYLFPPTFGQGTKVEIK
notes: as for B1

How the values were obtained:
[1] = target: T1, serum resistance-associated protein (SRA) from Trypanosoma brucei rhodesiense, recombinant SRA (SEQ ID NO: … (Trypanosoma brucei rhodesiense, UniProt O96637 31-274)); test: SPR, 25C, t1/2 pH 7.4 over pH 4.5
T1 construct: also called SRA protein
T1 sequence: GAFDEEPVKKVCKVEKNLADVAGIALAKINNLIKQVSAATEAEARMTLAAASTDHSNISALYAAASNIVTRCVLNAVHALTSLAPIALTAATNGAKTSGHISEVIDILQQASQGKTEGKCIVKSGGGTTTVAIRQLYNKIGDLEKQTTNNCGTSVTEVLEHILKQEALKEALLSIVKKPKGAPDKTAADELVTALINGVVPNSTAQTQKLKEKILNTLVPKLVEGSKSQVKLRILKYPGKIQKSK
Experimental: (§1) Equilibrium dissociation constants (KD) values for SRA binding to selected purified anti-SRA monoclonal antibodies were determined using a real-time surface plasmon resonance biosensor assay on a Biacore T200 instrument. […] SRA binding to the captured monoclonal antibodies was monitored for 4 min while the dissociation of mAb bound SRA was monitored for 7 min. Two different assays formats were adopted to characterize kinetics of SRA binding—(i) regular kinetics and (ii) pH4.5 chase. Regular kinetics experiments were performed using pH7.4 buffer as the running buffer and both the association and dissociation was performed in pH7.4. For the chase format, association and dissociation were performed in pH7.4 buffer and pH4.5 buffer respectively.
(§2) Kinetic association (kₐ) and dissociation (kd) rate constants were determined by processing and fitting the data to a 1:1 binding model using Scrubber 2.0c curve fitting software. Only the dissociation rate (kd) was calculated for the pH4.5 chase experiment. Binding dissociation equilibrium constants (KD) and dissociative half-lives (t½) were calculated from the kinetic rate constants as:

[2] = target: T1, serum resistance-associated protein …; test: SPR, mAb captured, 25C, assoc. pH 7.4, dissoc. pH 4.5
Experimental: as §1, §2

[3] = target: T1, serum resistance-associated protein …; test: SPR, mAb captured, pH 4.5, 25C; competitor biotin-mutant apoL1 peptide
SRA.mmh [4] = target: T2, SRA.mmh; test: Octet, mAb-2 at 50 ug/mL on captured SRA.mmh after negative control α-PRLR H1H6800P as mAb-1 (row 32 (-))
T2 construct: also called SRA.mmh (CHO)
T2 antigen: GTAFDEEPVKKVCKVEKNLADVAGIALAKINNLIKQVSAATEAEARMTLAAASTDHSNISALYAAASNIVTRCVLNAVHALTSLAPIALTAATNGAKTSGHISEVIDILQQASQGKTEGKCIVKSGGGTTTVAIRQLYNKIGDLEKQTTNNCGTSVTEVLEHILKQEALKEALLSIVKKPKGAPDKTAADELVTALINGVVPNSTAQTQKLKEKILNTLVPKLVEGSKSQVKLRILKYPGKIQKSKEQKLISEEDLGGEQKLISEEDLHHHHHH

[5] = target: T1, serum resistance-associated protein …; test: SPR, mAb captured, 25C, pH 7.4
Experimental: as §1, §2

SRA.mmh [6] = target: T2, SRA.mmh; test: Octet, SRA.mmh captured on anti-Penta-His tips, mAb-1 at 50 ug/mL for 5 min, 25 C, pH 7.4
[7] = target: T1, serum resistance-associated protein …; test: SPR, mAb captured, pH 4.5, 25C; competitor biotin-apoL1 peptide
[8] = target: T1, serum resistance-associated protein …; test: SPR, mAb captured, 50 nM SRA, pH 4.5, 25C

| Binder | t ½ ratio pH 7.4/pH 4.5 [1] | t ½ [2] | 50 nM SRA + 5 uM mutant apoL1 peptide binding (RU) [3] | % Blocking, Mutant apoL1 peptide [3] | Binding of mAb-2 to SRA Pre-complexed with mAb-1 (SRA.mmh [4]) | Kd [5] | kon [5] | t ½ [5] | 50 ug/mL mAb 1 Bound (nm) (SRA.mmh [6]) | 50 nM SRA + 5 uM apoL1 peptide binding (RU) [7] | % Blocking, apoL1 peptide [7] | 50 nM SRA binding (RU) [8] |
| --- | --- | --- | --- | --- | --- | --- | --- | --- | --- | --- | --- | --- |
| B1 | ≥ 2 | 1.87 h | 52 RU | 5% | 1.37 | ≤ 78.5 pM | 636000 M⁻¹ s⁻¹ | ≥ 3.85 h | 1.61 nm | 62 RU | -13% | 54 RU |
| B2 | ≥ 6 | 0.617 h | 65 RU | 11% | 1.17 | ≤ 31.8 pM | 1.57e+06 M⁻¹ s⁻¹ | ≥ 3.85 h | 1.24 nm | -9 RU | 100% | 73 RU |
| B3 | ≥ 2 | 1.82 h | 75 RU | 5% | 1.53 | ≤ 30.8 pM | 1.62e+06 M⁻¹ s⁻¹ | ≥ 3.85 h | 1.53 nm | -5 RU | 100% | 79 RU |
| B4 | ≥ 3 | 1.4 h | 92 RU | 4% | 1.55 | ≤ 37.6 pM | 1.33e+06 M⁻¹ s⁻¹ | ≥ 3.85 h | 1.5 nm | 118 RU | -24% | 95 RU |
| B5 | ≥ 95 | 0.0333 h | 128 RU | 9% | 1.08 | ≤ 89.9 pM | 556000 M⁻¹ s⁻¹ | ≥ 3.85 h | 1.46 nm | 3 RU | 98% | 140 RU |
| B6 | 124 | 0.0117 h | 111 RU | 8% | 1.24 | 138 pM | 1.03e+06 M⁻¹ s⁻¹ | 1.37 h | 1.53 nm | 8 RU | 94% | 120 RU |
| B7 | ≥ 4 | 0.933 h | 82 RU | 4% | 1.41 | ≤ 55.7 pM | 897000 M⁻¹ s⁻¹ | ≥ 3.85 h | 1.52 nm | 98 RU | -16% | 85 RU |
| B8 | ≥ 1 | 4.05 h | 56 RU | 5% | 1.27 | ≤ 78.6 pM | 636000 M⁻¹ s⁻¹ | ≥ 3.85 h | 1.44 nm | 57 RU | 4% | 59 RU |
